We go through 15 molecules from US20240067751A1 (KEYMED BIOSCIENCES, published 2024).

Usually EC50 stands for the concentration needed to bring the measured effect to its halfway point. Usually Kd stands for a measure of binding affinity in units of concentration.

Test [1] deals with T1, human MASP-2 D4-6 recombinant protein (human, UniProt O00187 298-686).
T1 construct: his6 tag fused at the N-terminus, made in HEK293E; also called enzymatic activity domains CCP1-CCP2-SP of human MASP-2
In words: ELISA, antigen coated, chimeric IgG titrated, anti-human Fc-HRP. (An ELISA detects its analyte on a solid surface through an enzyme-linked reagent.)

The target in test [2] is T2, Cynomolgus monkey MASP-2 D4-6 recombinant protein (Cynomolgus monkey, UniProt O00187 298-686 (human entry), limits assumed).
T2 construct: Made 'similarly' to the human protein (N-terminal his6 tag)
Described as above.

Test [3] has as its target T3, mouse MASP-2 D4-6 recombinant protein (mouse, UniProt Q91WP0 298-685).
T3 construct: Made 'similarly' to the human protein (N-terminal his6 tag)
Described as above.

Test [4] has as its target T4, rat MASP-2 D4-6 recombinant protein (rat, UniProt Q9JJS8 298-685).
T4 construct: Made 'similarly' to the human protein (N-terminal his6 tag)
The test is described as above.

In test [5] the target is T1, human MASP-2 D4-6 recombinant protein. As to the kind of experiment: SPR Biacore T200, antibody on Protein A chip, antigen as analyte, 1:1 fit. The protocol: (§1) Surface plasmon resonance technology (SPR/Biacore T200) was used to capture 0.1 μg/ml of the antibody on the surface of the Protein A chip, with a capture time of 40 seconds and a flow rate of 10 μl/min. The chip was washed with buffer until the baseline leveled off, then gradient-diluted antigen was flowed through the chip at the flow rate of 30 μl/min, with a binding time of 120 sec and a dissociation time of 600 sec. The equilibrium dissociation constant (KD) was obtained by fitting in Langmuir 1:1 kinetics mode.

The target in test [6] is T2, Cynomolgus monkey MASP-2 D4-6 …. Described as above. The protocol:
as §1

Test [7] concerns the target T3, mouse MASP-2 D4-6 recombinant protein. The test is described as above. The method, then:
as §1

Test [8] has as its target T5, MASP-2 in human serum (human, UniProt O00187 16-686). In words: cell-based or functional assay.
Test [9] has as its target T5, MASP-2 in human serum. As to the kind of experiment: cell-based or functional assay. This is another data set of the same source.

T1 sequence (O00187 other isoform, or with tags, fused parts or gaps limits assumed): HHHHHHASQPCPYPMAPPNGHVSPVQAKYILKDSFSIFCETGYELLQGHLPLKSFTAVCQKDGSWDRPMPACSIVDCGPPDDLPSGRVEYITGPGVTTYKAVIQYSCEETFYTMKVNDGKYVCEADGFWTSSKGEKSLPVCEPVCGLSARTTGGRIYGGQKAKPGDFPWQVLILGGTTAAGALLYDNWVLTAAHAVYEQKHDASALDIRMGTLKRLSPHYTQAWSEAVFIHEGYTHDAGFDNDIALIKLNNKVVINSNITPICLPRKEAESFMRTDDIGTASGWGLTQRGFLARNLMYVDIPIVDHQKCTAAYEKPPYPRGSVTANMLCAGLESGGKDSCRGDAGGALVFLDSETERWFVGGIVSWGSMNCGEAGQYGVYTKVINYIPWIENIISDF
T3 sequence (Q91WP0 other isoform, or with tags, fused parts or gaps limits assumed): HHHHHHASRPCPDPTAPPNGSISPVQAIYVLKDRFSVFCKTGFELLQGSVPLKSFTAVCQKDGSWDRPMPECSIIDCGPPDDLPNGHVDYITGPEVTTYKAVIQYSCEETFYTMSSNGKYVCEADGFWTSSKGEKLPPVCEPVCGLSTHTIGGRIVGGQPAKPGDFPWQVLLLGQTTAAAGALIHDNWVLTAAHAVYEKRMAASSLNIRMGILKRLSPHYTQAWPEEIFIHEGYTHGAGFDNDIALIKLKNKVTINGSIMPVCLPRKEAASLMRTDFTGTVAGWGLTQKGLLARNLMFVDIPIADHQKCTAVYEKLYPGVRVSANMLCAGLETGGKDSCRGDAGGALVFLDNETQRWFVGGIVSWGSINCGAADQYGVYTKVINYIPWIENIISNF
T5 sequence (O00187 16-686 limits assumed): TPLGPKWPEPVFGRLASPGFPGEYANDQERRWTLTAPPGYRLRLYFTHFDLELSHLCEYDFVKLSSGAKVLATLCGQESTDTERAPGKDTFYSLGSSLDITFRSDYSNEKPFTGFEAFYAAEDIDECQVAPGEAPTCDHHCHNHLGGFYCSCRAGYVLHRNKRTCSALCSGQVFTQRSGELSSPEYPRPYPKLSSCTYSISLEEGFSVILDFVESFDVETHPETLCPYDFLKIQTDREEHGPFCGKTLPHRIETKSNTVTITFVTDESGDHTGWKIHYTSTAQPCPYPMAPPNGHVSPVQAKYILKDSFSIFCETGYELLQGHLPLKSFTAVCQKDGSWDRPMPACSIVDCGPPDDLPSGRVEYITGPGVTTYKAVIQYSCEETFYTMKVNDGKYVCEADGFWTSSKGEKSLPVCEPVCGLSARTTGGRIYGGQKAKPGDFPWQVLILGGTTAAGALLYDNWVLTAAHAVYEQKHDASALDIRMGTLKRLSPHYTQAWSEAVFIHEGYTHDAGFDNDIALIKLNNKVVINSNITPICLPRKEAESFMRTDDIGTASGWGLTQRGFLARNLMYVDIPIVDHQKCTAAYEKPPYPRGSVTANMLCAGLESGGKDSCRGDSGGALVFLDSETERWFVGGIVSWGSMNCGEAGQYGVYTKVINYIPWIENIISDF
T2 sequence (O00187 other isoform, or with tags, fused parts or gaps limits assumed): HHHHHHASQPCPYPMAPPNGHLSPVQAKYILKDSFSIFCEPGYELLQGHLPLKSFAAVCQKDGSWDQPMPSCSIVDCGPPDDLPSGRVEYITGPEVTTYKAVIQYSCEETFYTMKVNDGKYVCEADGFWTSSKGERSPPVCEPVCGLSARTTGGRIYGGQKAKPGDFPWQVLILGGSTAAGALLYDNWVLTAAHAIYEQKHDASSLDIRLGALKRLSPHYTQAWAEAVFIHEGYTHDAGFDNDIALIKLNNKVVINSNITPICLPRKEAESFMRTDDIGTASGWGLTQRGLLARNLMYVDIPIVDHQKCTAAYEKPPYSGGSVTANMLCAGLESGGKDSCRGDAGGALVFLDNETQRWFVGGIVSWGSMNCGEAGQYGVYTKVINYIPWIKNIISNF
T4 sequence (Q9JJS8 other isoform, or with tags, fused parts or gaps limits assumed): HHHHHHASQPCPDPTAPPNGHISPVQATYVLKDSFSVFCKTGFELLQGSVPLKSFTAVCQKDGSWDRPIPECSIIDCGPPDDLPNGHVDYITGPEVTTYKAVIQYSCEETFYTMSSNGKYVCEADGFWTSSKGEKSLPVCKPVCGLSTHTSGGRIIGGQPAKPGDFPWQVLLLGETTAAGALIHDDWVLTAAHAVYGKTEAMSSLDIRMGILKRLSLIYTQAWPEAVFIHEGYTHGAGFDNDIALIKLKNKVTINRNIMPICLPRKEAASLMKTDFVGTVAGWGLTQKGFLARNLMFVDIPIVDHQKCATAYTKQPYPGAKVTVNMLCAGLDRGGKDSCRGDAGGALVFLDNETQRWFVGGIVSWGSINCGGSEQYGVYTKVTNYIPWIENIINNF

B1: chimeric antibody 10L3 (antibody, V domains shown)
VH: DVQLQESGPGLVKPSQSLSLTCTVTGYSITSDYAWNWIRQFPGNKLEWMGYISYSGRTSYNPSLKSRISITRDTSKNQFFLQLNSVTTEDTATYYCAKLGGGHGMDYWGQGTSVTVSS
VL: IVMTQSQKFMSTSVGDRVSVTCKASQNVDTNVAWYQQKPGQSPKALIYSASYRYSGVPDRFTGSGSGTDFTLTISNVQSEDLAEYFCLQYNSYLTFGSGTKLELK
As for B1, the EC50 in test [1] was determined as 0.022 nM; in test [2], 0.016 nM; in test [3], 30.9 nM; in test [4], 30.2 nM. In addition, the Kd is 0.07 nM in [5], 1.29 nM in [6] and 214 nM in test [7].

B2: chimeric antibody 1B2 (antibody, V domains shown)
VH: DVQLQESGPGLVKPSQSLSLTCTVTGYSITSDYAWNWIRQFSGDKLEWMGYISYSGSTSYNPSLKSRISITRDTSKNQFFLHLSSVTTEDTATYFCARYWGDYWGHGTTLTVSS
VL: DSVMTQSQKFMSTSVGDRVSVTCKASHNVGTNVAWFQQKPGQSPKGLIYSASYRSSGVPDRFTGSGSGTDFTLTISNVQSEDLAEYFCLQYNSNPLTFGGGTKLEVK
On to B2, for which the EC50 in [1] was found to be 0.015 nM; in test [2], 0.014 nM; in test [3], 0.947 nM; in test [4], 1.44 nM. Besides, the figures for the equilibrium dissociation constant (Kd) in test [5], in test [6] and in test [7] were 0.002 nM, 0.078 nM and 632 nM, respectively.

B3: h28O14 H2K1 (antibody, V domains shown)
VH: QVQLVQSGAEVKKPGSSVKVSCKASGYTFRSHTMHWVRQAPGQGLEWMGYINPSTGYINYNQKFQGRVTLTADESTSTAYMELSSLRSEDTAVYYCARSNYAYYYGMDYWGQGTTVTVSS
VL: DIQMTQSPSSLSASVGDRVTITCRASQDVNTAVAWYQQKPGKAPKLLIYSASYRYTGVPSRFSGSGSGTDFTLTISSLQPEDFATYYCQQHYNIPLTFGGGTKVEIK
B3: the “IC50, inhibition of C4b deposition” value in the test with MASP-2 in human serum [8] was found to be 0.324 nM. The “IC50, inhibition of C3b deposition” value with MASP-2 in human serum [9] is 0.483 nM.

B4: h28O14 H3K1 (antibody, V domains shown)
VH: QVQLVQSGAEVKKPGSSVKVSCKASGYTFRSHTMHWVRQAPGQGLEWMGYINPSTGYINYNQKFQGRVTITADKSTSTAYMELSSLRSEDTAVYYCARSNYAYYYGMDYWGQGTTVTVSS
VL: DIQMTQSPSSLSASVGDRVTITCRASQDVNTAVAWYQQKPGKAPKLLIYSASYRYTGVPSRFSGSGSGTDFTLTISSLQPEDFATYYCQQHYNIPLTFGGGTKVEIK
For B4, the “IC50, inhibition of C4b deposition” value with MASP-2 in human serum [8] was 0.064 nM. In addition, in the test with MASP-2 in human serum [9], the “IC50, inhibition of C3b deposition” value is 0.161 nM.

B5: h28O14 H4K1 (antibody, V domains shown)
VH: QVQLVQSGAEVKKPGSSVKVSCKASGYTFRSHTMHWVRQAPGQGLEWMGYINPSTGYINYNQKFQGRVTITADESTSTAYMELSSLRSEDTAVYYCARSNYAYYYGMDYWGQGTTVTVSS
VL: DIQMTQSPSSLSASVGDRVTITCRASQDVNTAVAWYQQKPGKAPKLLIYSASYRYTGVPSRFSGSGSGTDFTLTISSLQPEDFATYYCQQHYNIPLTFGGGTKVEIK
With B5, the “IC50, inhibition of C4b deposition” value in the test with MASP-2 in human serum [8] worked out at 0.338 nM. For the same molecule, in the test with MASP-2 in human serum [9], the “IC50, inhibition of C3b deposition” value came out at 0.506 nM.

B6: h16B11 H2K2 (antibody, V domains shown)
VH: QLQLQESGPGLVKPSETLSLTCTVSGYSITSDYAWNWIRQPPGKGLEWIGYISYSGRTSYNPSLKSRVTISRDTSKNQFSLKLSSVTAADTAVYYCARHYGDYWGQGTLVTVSS
VL: DIQMTQSPSSLSASVGDRVTITCRASQNVGTNVAWYQQKPGKAPKLLIYSASYRESGVPSRFSGSGSGTDFTLTISSLQPEDFATYFCQQFNTNPLTFGGGTKVEIK
As to B6, in the test with MASP-2 in human serum [8], the “IC50, inhibition of C4b deposition” value worked out at 0.032 nM. The “IC50, inhibition of C3b deposition” value with MASP-2 in human serum [9] is 0.028 nM.

B7: h16B11 H3K2 (antibody, V domains shown)
VH: QLQLQESGPGLVKPSETLSLTCTVSGYSITSDYAWNWIRQPPGKGLEWIGYISYSGRTSYNPSLKSRVTISVDTSKNQFSLKLSSVTAADTAVYYCARHYGDYWGQGTLVTVSS
VL: DIQMTQSPSSLSASVGDRVTITCRASQNVGTNVAWYQQKPGKAPKLLIYSASYRESGVPSRFSGSGSGTDFTLTISSLQPEDFATYFCQQFNTNPLTFGGGTKVEIK
On to B7, for which the “IC50, inhibition of C4b deposition” value in the test with MASP-2 in human serum [8] was 1.69 nM. Further, the “IC50, inhibition of C3b deposition” value with MASP-2 in human serum [9] came to 0.399 nM.

B8: h16B11 H1K2 (antibody, V domains shown)
VH: QMQLQESGPGLVKPSETLSLTCTVSGYSITSDYAWNWIRQPPGKGLEWIGYISYSGRTSYNPSLKSRVTISRDTSKNQFSLKLSSVTAADTAVYYCARHYGDYWGQGTLVTVSS
VL: DIQMTQSPSSLSASVGDRVTITCRASQNVGTNVAWYQQKPGKAPKLLIYSASYRESGVPSRFSGSGSGTDFTLTISSLQPEDFATYFCQQFNTNPLTFGGGTKVEIK
Consider B8, for which the “IC50, inhibition of C4b deposition” value with MASP-2 in human serum [8] is 0.051 nM. The “IC50, inhibition of C3b deposition” value in the test with MASP-2 in human serum [9] is 0.04 nM.

B9: h16B11 H1K1 (antibody, V domains shown)
VH: QMQLQESGPGLVKPSETLSLTCTVSGYSITSDYAWNWIRQPPGKGLEWIGYISYSGRTSYNPSLKSRVTISRDTSKNQFSLKLSSVTAADTAVYYCARHYGDYWGQGTLVTVSS
VL: DIQMTQSPSSLSASVGDRVTITCRASQNVGTNVAWYQQKPGKAPKALIYSASYRESGVPSRFSGSGSGTDFTLTISSLQPEDFATYFCQQFNTNPLTFGGGTKVEIK
For the molecule B9, in the test with MASP-2 in human serum [8], the “IC50, inhibition of C4b deposition” value is 0.02 nM. In addition, in the test with MASP-2 in human serum [9], the “IC50, inhibition of C3b deposition” value worked out at 0.014 nM.

B10: h16B11 H3K3 (antibody, V domains shown)
VH: QLQLQESGPGLVKPSETLSLTCTVSGYSITSDYAWNWIRQPPGKGLEWIGYISYSGRTSYNPSLKSRVTISVDTSKNQFSLKLSSVTAADTAVYYCARHYGDYWGQGTLVTVSS
VL: DIQMTQSPSSLSASVGDRVTITCRASQNVGTNVAWYQQKPGKAPKALIYSASYRQSGVPSRFSGSGSGTDFTLTISSLQPEDFATYFCQQFNTNPLTFGGGTKVEIK
With B10, the “IC50, inhibition of C4b deposition” value with MASP-2 in human serum [8] was 0.44 nM. Besides, the “IC50, inhibition of C3b deposition” value in the test with MASP-2 in human serum [9] came out at 0.112 nM.

B11: h16B11 H3K1 (antibody, V domains shown)
VH: QLQLQESGPGLVKPSETLSLTCTVSGYSITSDYAWNWIRQPPGKGLEWIGYISYSGRTSYNPSLKSRVTISVDTSKNQFSLKLSSVTAADTAVYYCARHYGDYWGQGTLVTVSS
VL: DIQMTQSPSSLSASVGDRVTITCRASQNVGTNVAWYQQKPGKAPKALIYSASYRESGVPSRFSGSGSGTDFTLTISSLQPEDFATYFCQQFNTNPLTFGGGTKVEIK
Regarding B11, in the test with MASP-2 in human serum [8], the “IC50, inhibition of C4b deposition” value came out at 0.098 nM. Moreover, in the test with MASP-2 in human serum [9], the “IC50, inhibition of C3b deposition” value amounted to 0.06 nM.

B12: h16B11 H2K3 (antibody, V domains shown)
VH: QLQLQESGPGLVKPSETLSLTCTVSGYSITSDYAWNWIRQPPGKGLEWIGYISYSGRTSYNPSLKSRVTISRDTSKNQFSLKLSSVTAADTAVYYCARHYGDYWGQGTLVTVSS
VL: DIQMTQSPSSLSASVGDRVTITCRASQNVGTNVAWYQQKPGKAPKALIYSASYRQSGVPSRFSGSGSGTDFTLTISSLQPEDFATYFCQQFNTNPLTFGGGTKVEIK
As to B12, the “IC50, inhibition of C4b deposition” value with MASP-2 in human serum [8] was 0.012 nM. The “IC50, inhibition of C3b deposition” value in the test with MASP-2 in human serum [9] was found to be 0.018 nM.

B13: h16B11 H2K1 (antibody, V domains shown)
VH: QLQLQESGPGLVKPSETLSLTCTVSGYSITSDYAWNWIRQPPGKGLEWIGYISYSGRTSYNPSLKSRVTISRDTSKNQFSLKLSSVTAADTAVYYCARHYGDYWGQGTLVTVSS
VL: DIQMTQSPSSLSASVGDRVTITCRASQNVGTNVAWYQQKPGKAPKALIYSASYRESGVPSRFSGSGSGTDFTLTISSLQPEDFATYFCQQFNTNPLTFGGGTKVEIK
With B13, the “IC50, inhibition of C4b deposition” value with MASP-2 in human serum [8] amounted to 0.02 nM. The “IC50, inhibition of C3b deposition” value with MASP-2 in human serum [9] came to 0.017 nM.

B14: h16B11 H1K3 (antibody, V domains shown)
VH: QMQLQESGPGLVKPSETLSLTCTVSGYSITSDYAWNWIRQPPGKGLEWIGYISYSGRTSYNPSLKSRVTISRDTSKNQFSLKLSSVTAADTAVYYCARHYGDYWGQGTLVTVSS
VL: DIQMTQSPSSLSASVGDRVTITCRASQNVGTNVAWYQQKPGKAPKALIYSASYRQSGVPSRFSGSGSGTDFTLTISSLQPEDFATYFCQQFNTNPLTFGGGTKVEIK
On to B14, for which the “IC50, inhibition of C4b deposition” value in the test with MASP-2 in human serum [8] is 0.021 nM. In addition, the “IC50, inhibition of C3b deposition” value with MASP-2 in human serum [9] worked out at 0.023 nM.

B15: chimeric antibody 4F18 (antibody, V domains shown)
VH: EVQLQESGPGLVKPSQSLSLACTVTGYSITSDYAWHWIRQFPGNKLEWMGFISYSGRTNYNPPLTSRISITRDTSKNQFFLQLNSVTTEDTATYYCARSYDYWFGYWGQGTLVTVSA
VL: NVLMTQTPLSLPVSLGDQASISCRSSQSLVHSNGNTYLEWYMQKPGQSPKLLIYTVSRRFSGVPDRFSGSGSGTDFTLKISRVEAEDLGVYYCFQGSHVPVTFGAGTKLELK
notes: to be rechecked
B15: the EC50 in test [1] stood at 0.004 nM; in test [2], 0.003 nM; in test [3] it was 0.287 nM. Also, the dissociation constant (Kd) in test [5] stood at 0.108 nM; in test [6], 24.8 nM; in [7], 218 nM.
